B1: Y-Aib-EGT-αMeF(2F)-TSD-4Pal-SI-αMeL-LD-Orn-K((2-[2-(2-Amino-ethoxy)-ethoxy]-acetyl)2-(γ-Glu)-CO-(CH2)12-CO2H)AQ-Aib-EFI-(D-Glu)-αMeY-LIEGGP S SGAPPP … (peptide)
peptide: YXEGTXTSDXSIXLDXKAQXEFIXXLIEGGPSSGAPPPSK
modifications: Aib2, αMeF(2F)6, 4Pal10, αMeL13, Orn16, Aib20, D-Glu24, αMeY25; acylated K17, K40 (groups as in name); C-terminal amide
B2: Y-Aib-EGT-αMeF(2F)-TSD-4Pal-SI-αMeL-LD-Orn-K((2-[2-(2-Amino-ethoxy)-ethoxy]-acetyl)2-(γ-Glu)-CO-(CH2)14-CH3)AQ-Aib-EFI-(D-Glu)-αMeY-LIEGGPSSGAPPPSK((2-[2-(2-Ami … (peptide)
peptide: YXEGTXTSDXSIXLDXKAQXEFIXXLIEGGPSSGAPPPSK
modifications: Aib2, αMeF(2F)6, 4Pal10, αMeL13, Orn16, Aib20, D-Glu24, αMeY25; acylated K17, K40 (groups as in name); C-terminal amide
B3: Y-Aib-EGT-αMeF(2F)-TSD-4Pal-SI-αMeL-LD-Orn-IAQ-Aib-K((2-[2-(2-Amino-ethoxy)-ethoxy]-acetyl)2-(γ-Glu)-CO-(CH2)12-CO2H)FI-(D-Glu)-αMeY-LIEGGPSSGAPPPSK((2-[2-(2-Am … (peptide)
peptide: YXEGTXTSDXSIXLDXIAQXKFIXXLIEGGPSSGAPPPSK
modifications: Aib2, αMeF(2F)6, 4Pal10, αMeL13, Orn16, Aib20, D-Glu24, αMeY25; acylated K21, K40 (groups as in name); C-terminal amide
B4: Y-Aib-EGT-αMeF(2F)-TSD-4Pal-SI-αMeL-LD-Orn-K((2-[2-(2-Amino-ethoxy)-ethoxy]-acetyl)2-(γ-Glu)-(4-(4-tert-butylphenyl)butanoyl))AQ-Aib-EFI-(D-Glu)-αMeY-LIEGGPSSGA … (peptide)
peptide: YXEGTXTSDXSIXLDXKAQXEFIXXLIEGGPSSGAPPPSK
modifications: Aib2, αMeF(2F)6, 4Pal10, αMeL13, Orn16, Aib20, D-Glu24, αMeY25; acylated K17, K40 (groups as in name); C-terminal amide
B5: Y-Aib-EGT-αMeF(2F)-TSD-4Pal-SI-αMeL-LD-Orn-K((2-[2-(2-Amino-ethoxy)-ethoxy]-acetyl)-(γ-Glu)-CO-(CH2)12-CO2H)AQ-Aib-EFI-(D-Glu)-αMeY-LIEGGK((2-[2-(2-Amino-ethoxy … (peptide)
peptide: YXEGTXTSDXSIXLDXKAQXEFIXXLIEGGKSSGAPPPS
modifications: Aib2, αMeF(2F)6, 4Pal10, αMeL13, Orn16, Aib20, D-Glu24, αMeY25; acylated K17, K31 (groups as in name); C-terminal amide
B6: Y-Aib-EGT-αMeF(2F)-TSD-4Pal-SI-αMeL-LD-Orn-K((2-[2-(2-Amino-ethoxy)-ethoxy]-acetyl)-(εK)-(γ-Glu)-CO-(CH2)12-CO2H)AQ-Aib-EFI-(D-Glu)-αMeY-LIEGGK((2-[2-(2-Amino-e … (peptide)
peptide: YXEGTXTSDXSIXLDXKAQXEFIXXLIEGGKSSGAPPPS
modifications: Aib2, αMeF(2F)6, 4Pal10, αMeL13, Orn16, Aib20, D-Glu24, αMeY25; acylated K17, K31 (groups as in name); C-terminal amide
B7: Y-Aib-EGT-αMeF(2F)-TSD-4Pal-SI-αMeL-LD-Orn-K((2-[2-(2-Amino-ethoxy)-ethoxy]-acetyl)-(γ-Glu)-CO-(CH2)14-CH3)AQ-Aib-EFI-(D-Glu)-αMeY-LIEGGK((2-[2-(2-Amino-ethoxy) … (peptide)
peptide: YXEGTXTSDXSIXLDXKAQXEFIXXLIEGGKSSGAPPPS
modifications: Aib2, αMeF(2F)6, 4Pal10, αMeL13, Orn16, Aib20, D-Glu24, αMeY25; acylated K17, K31 (groups as in name); C-terminal amide
B8: Y-Aib-EGT-αMeF(2F)-TSD-4Pal-SI-αMeL-LD-Orn-K((εK)-(εK)-(γ-Glu)-CO-(CH2)12-CO2H)AQ-Aib-EFI-(D-Glu)-αMeY-LIEGGK((εK)-(εK)-(γ-Glu)-CO-(CH2)12-CO2H)SSGAPPPS-NH2 (peptide)
peptide: YXEGTXTSDXSIXLDXKAQXEFIXXLIEGGKSSGAPPPS
modifications: Aib2, αMeF(2F)6, 4Pal10, αMeL13, Orn16, Aib20, D-Glu24, αMeY25; acylated K17, K31 (groups as in name); C-terminal amide
B9: Y-Aib-EGT-αMeF(2F)-TSD-4Pal-SI-αMeL-LD-Orn-K((2-[2-(2-Amino-ethoxy)-ethoxy]-acetyl)-(γ-Glu)-(10-(4-carboxyphenoxy)decanoyl))AQ-Aib-EFI-(D-Glu)-αMeY-LIEGGK((2-[2 … (peptide)
peptide: YXEGTXTSDXSIXLDXKAQXEFIXXLIEGGKSSGAPPPS
modifications: Aib2, αMeF(2F)6, 4Pal10, αMeL13, Orn16, Aib20, D-Glu24, αMeY25; acylated K17, K31 (groups as in name); C-terminal amide
B10: Y-Aib-EGT-αMeF(2F)-TSD-4Pal-SI-αMeL-LD-Orn-K((γ-Glu)-(2-[2-(2-Amino-ethoxy)-ethoxy]-acetyl)2-CO-(CH2)12-CO2H)AQ-Aib-EFI-(D-Glu)-αMeY-LIEGGK((γ-Glu)-(2-[2-(2-Ami … (peptide)
peptide: YXEGTXTSDXSIXLDXKAQXEFIXXLIEGGKSSGAPPPS
modifications: Aib2, αMeF(2F)6, 4Pal10, αMeL13, Orn16, Aib20, D-Glu24, αMeY25; acylated K17, K31 (groups as in name); C-terminal amide
B11: Y-Aib-EGT-αMeF(2F)-TSD-4Pal-SI-αMeL-LD-Orn-K((2-[2-(2-Amino-ethoxy)-ethoxy]-acetyl)2-(γ-Glu)-(4-(4-tert-butylphenyl)butanoyl))AQ-Aib-K((2-[2-(2-Amino-ethoxy)-et … (peptide)
peptide: YXEGTXTSDXSIXLDXKAQXKFIXXLIEGGPSSGAPPPS
modifications: Aib2, αMeF(2F)6, 4Pal10, αMeL13, Orn16, Aib20, D-Glu24, αMeY25; acylated K17, K21 (groups as in name); C-terminal amide
B12: Y-Aib-EGT-αMeF(2F)-TSD-4Pal-SI-αMeL-LD-Orn-K((εK)-(2-[2-(2-Amino-ethoxy)-ethoxy]-acetyl)-(γ-Glu)-CO-(CH2)12-CO2H)AQ-Aib-EFI-(D-Glu)-αMeY-LIEGGK((εK)-(2-[2-(2-Am … (peptide)
peptide: YXEGTXTSDXSIXLDXKAQXEFIXXLIEGGKSSGAPPPS
modifications: Aib2, αMeF(2F)6, 4Pal10, αMeL13, Orn16, Aib20, D-Glu24, αMeY25; acylated K17, K31 (groups as in name); C-terminal amide
B13: Y-Aib-EGT-αMeF(2F)-TSD-4Pal-SI-αMeL-LD-Orn-K((2-[2-(2-Amino-ethoxy)-ethoxy]-acetyl)2-(εK)-(γ-Glu)-CO-(CH2)12-CO2H)AQ-Aib-EFI-(D-Glu)-αMeY-LIEGGK((2-[2-(2-Amino- … (peptide)
peptide: YXEGTXTSDXSIXLDXKAQXEFIXXLIEGGKSSGAPPPS
modifications: Aib2, αMeF(2F)6, 4Pal10, αMeL13, Orn16, Aib20, D-Glu24, αMeY25; acylated K17, K31 (groups as in name); C-terminal amide
B14: Y-Aib-EGT-αMeF(2F)-TSD-4Pal-SI-αMeL-LD-Orn-K((εK)-(γ-Glu)-CO-(CH2)12-CO2H)AQ-Aib-EFI-(D-Glu)-αMeY-LIEGGK((εK)-(γ-Glu)-CO-(CH2)12-CO2H)SSGAPPPS-NH2 (peptide)
peptide: YXEGTXTSDXSIXLDXKAQXEFIXXLIEGGKSSGAPPPS
modifications: Aib2, αMeF(2F)6, 4Pal10, αMeL13, Orn16, Aib20, D-Glu24, αMeY25; acylated K17, K31 (groups as in name); C-terminal amide
B15: Y-Aib-EGT-αMeF-TSD-4Pal-SI-αMeL-LD-Orn-K((2-[2-(2-Amino-ethoxy)-ethoxy]-acetyl)2-(γ-Glu)-CO-(CH2)12-CO2H)AQ-Aib-EFI-(D-Glu)-αMeY-LIEGGK((2-[2-(2-Amino-ethoxy)-e … (peptide)
peptide: YXEGTXTSDXSIXLDXKAQXEFIXXLIEGGKSSGAPPPS
modifications: Aib2, αMeF6, 4Pal10, αMeL13, Orn16, Aib20, D-Glu24, αMeY25; acylated K17, K31 (groups as in name); C-terminal amide
B16: Y-Aib-EGT-αMeF(2F)-TSD-4Pal-SI-αMeL-LD-Orn-K((2-[2-(2-Amino-ethoxy)-ethoxy]-acetyl)-(γ-Glu)-(2-[2-(2-Amino-ethoxy)-ethoxy]-acetyl)-CO-(CH2)12-CO2H)AQ-Aib-EFI-(D … (peptide)
peptide: YXEGTXTSDXSIXLDXKAQXEFIXXLIEGGKSSGAPPPS
modifications: Aib2, αMeF(2F)6, 4Pal10, αMeL13, Orn16, Aib20, D-Glu24, αMeY25; acylated K17, K31 (groups as in name); C-terminal amide
B17: Y-Aib-EGT-αMeF(2F)-TSD-4Pal-SI-αMeL-LD-Orn-K((2-[2-(2-Amino-ethoxy)-ethoxy]-acetyl)-(γ-Glu)-CO-(CH2)12-CO2H)AQ-Aib-EFIK((2-[2-(2-Amino-ethoxy)-ethoxy]-acetyl)-( … (peptide)
peptide: YXEGTXTSDXSIXLDXKAQXEFIKXLIEGGPSSGAPPPS
modifications: Aib2, αMeF(2F)6, 4Pal10, αMeL13, Orn16, Aib20, αMeY25; acylated K17, K24 (groups as in name); C-terminal amide
B18: Y-Aib-EGT-aMeF(2F)-TSD-4Pal-SI-aMeL-LD-Orn-K((2-[2-(2-Amino-ethoxy)-ethoxy]-acetyl)2-CO-(CH2)12-CO2H)AQ-Aib-EFIK((2-[2-(2-Amino-ethoxy)-ethoxy]-acetyl)2-CO-(CH2 … (peptide)
peptide: YXEGTXTSDXSIXLDXKAQXEFIKXLIEGGPSSGAPPPS
modifications: Aib2, αMeF(2F)6, 4Pal10, αMeL13, Orn16, Aib20, αMeY25; acylated K17, K24 (groups as in name); C-terminal amide
B19: Y-Aib-EGT-αMeF(2F)-TSD-4Pal-SI-αMeL-LD-Orn-K((εK)-(γ-Glu)-(γ-Glu)-CO-(CH2)12-CO2H)AQ-Aib-EFI-(D-Glu)-αMeY-LIEGGK((εK)-(γ-Glu)-(γ-Glu)-CO-(CH2)12-CO2H)SSGAPPPS-N … (peptide)
peptide: YXEGTXTSDXSIXLDXKAQXEFIXXLIEGGKSSGAPPPS
modifications: Aib2, αMeF(2F)6, 4Pal10, αMeL13, Orn16, Aib20, D-Glu24, αMeY25; acylated K17, K31 (groups as in name); C-terminal amide

The assay deals with human glucagon receptor (human, UniProt P47871 26-477). As to the kind of experiment: cell-based or functional assay.
In the case of B1, the “cAMP EC50 (1.0% HSA)” value was over 9.95 µM.

Take B2: the “cAMP EC50 (1.0% HSA)” value was over 9.95 µM.

As for B3, the “cAMP EC50 (1.0% HSA)” value was over 9.95 µM.

On to B4, for which the “cAMP EC50 (1.0% HSA)” value was over 9.95 µM.

In the case of B5, the “cAMP EC50 (1.0% HSA)” value is over 9.95 µM.

For B6, the “cAMP EC50 (1.0% HSA)” value was over 9.95 µM.

With B7, the “cAMP EC50 (1.0% HSA)” value is over 9.95 µM.

For the molecule B8, the “cAMP EC50 (1.0% HSA)” value was over 9.95 µM.

Regarding B9, the “cAMP EC50 (1.0% HSA)” value was over 9.95 µM.

Regarding B10, the “cAMP EC50 (1.0% HSA)” value was over 9.95 µM.

On to B11, for which the “cAMP EC50 (1.0% HSA)” value was over 9.95 µM.

For the molecule B12, the “cAMP EC50 (1.0% HSA)” value is over 9.95 µM.

Turning to B13, the “cAMP EC50 (1.0% HSA)” value is over 9.95 µM.

In the case of B14, the “cAMP EC50 (1.0% HSA)” value was over 9.95 µM.

B15: the “cAMP EC50 (1.0% HSA)” value was over 9.95 µM.

For B16, the “cAMP EC50 (1.0% HSA)” value is over 9.95 µM.

Consider B17, for which the “cAMP EC50 (1.0% HSA)” value is over 9.95 µM.

As to B18, the “cAMP EC50 (1.0% HSA)” value is over 9.95 µM.

On to B19, for which the “cAMP EC50 (1.0% HSA)” value was over 9.95 µM.

The record behind these values is patent US20230265151A1, “GIP/GLP1 CO-AGONIST COMPOUNDS” (priority 2020, published 2023).
